Results: paper PMC12051234, “NrdR in Streptococcus and Listeria spp.: DNA Helix Phase Dependence of the Bacterial Ribonucleotide Reductase Repressor”

T1: EcoNrdR (Escherichia coli, UniProt P0A8D0 1-149)
T1 sequence: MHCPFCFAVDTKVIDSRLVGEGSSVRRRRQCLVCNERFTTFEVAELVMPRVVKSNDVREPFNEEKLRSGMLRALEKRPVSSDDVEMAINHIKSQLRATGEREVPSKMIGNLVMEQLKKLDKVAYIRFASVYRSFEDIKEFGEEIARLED

T2: LmoNrdR (Listeria monocytogenes serotype 1/2a …, UniProt Q8Y6W9 1-154)
T2 sequence: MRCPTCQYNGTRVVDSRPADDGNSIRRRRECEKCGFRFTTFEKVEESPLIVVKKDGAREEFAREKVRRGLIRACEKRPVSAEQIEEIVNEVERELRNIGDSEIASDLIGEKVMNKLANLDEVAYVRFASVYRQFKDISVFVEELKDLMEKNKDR

T3: SpnNrdR (Streptococcus pneumoniae TIGR4, UniProt P67318 1-157)
T3 sequence: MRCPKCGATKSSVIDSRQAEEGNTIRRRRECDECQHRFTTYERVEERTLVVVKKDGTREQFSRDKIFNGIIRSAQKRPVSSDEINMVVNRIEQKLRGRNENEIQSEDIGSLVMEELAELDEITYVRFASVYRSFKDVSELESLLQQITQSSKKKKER

T4: ScoNrdR (Streptomyces coelicolor, UniProt O69980 1-182)
T4 sequence: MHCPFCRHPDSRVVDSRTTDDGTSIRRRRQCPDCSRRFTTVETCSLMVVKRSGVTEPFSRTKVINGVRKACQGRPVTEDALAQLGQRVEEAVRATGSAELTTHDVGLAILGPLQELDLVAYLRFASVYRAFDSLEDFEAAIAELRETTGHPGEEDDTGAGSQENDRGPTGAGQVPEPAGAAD

B1: Synt 12 bp spacer (dsDNA)
DNA 1: GCCAAACACAACATCTAGTGGTTGGATAGGAGCACACAACATCTAGTGGACCTC
DNA 2: GAGGTCCACTAGATGTTGTGTGCTCCTATCCAACCACTAGATGTTGTGTTTGGC
B2: Synt 13 bp spacer (dsDNA)
DNA 1: GCCAAACACAACATCTAGTGGTTGGATAGTGAGCACACAACATCTAGTGGACCTC
DNA 2: GAGGTCCACTAGATGTTGTGTGCTCACTATCCAACCACTAGATGTTGTGTTTGGC
B3: Synt 18 bp spacer (dsDNA)
DNA 1: GCCAAACACAACATCTAGTGGTTGGATAGCGTGAAGTGCACACAACATCTAGTGGACCTC
DNA 2: GAGGTCCACTAGATGTTGTGTGCACTTCACGCTATCCAACCACTAGATGTTGTGTTTGGC
B4: Synt 24 bp spacer (dsDNA)
DNA 1: GCCAAACACAACATCTAGTGGTTGGATAGCGTGAATTCACCTAGCACACAACATCTAGTGGACCTC
DNA 2: GAGGTCCACTAGATGTTGTGTGCTAGGTGAATTCACGCTATCCAACCACTAGATGTTGTGTTTGGC
B5: Synt 25 bp spacer (dsDNA)
DNA 1: GCCAAACACAACATCTAGTGGTTGGATAGCGTGAAGTTCACCTAGCACACAACATCTAGTGGACCTC
DNA 2: GAGGTCCACTAGATGTTGTGTGCTAGGTGAACTTCACGCTATCCAACCACTAGATGTTGTGTTTGGC
B6: Synt 26 bp spacer (dsDNA)
DNA 1: GCCAAACACAACATCTAGTGGTTGGATAGCGTGAAGTTCCACCTAGCACACAACATCTAGTGGACCTC
DNA 2: GAGGTCCACTAGATGTTGTGTGCTAGGTGGAACTTCACGCTATCCAACCACTAGATGTTGTGTTTGGC
B7: Eco nrdHIEF box 1 duplicated (dsDNA)
DNA 1: GTCTCTTGCTATATATTGTGTGGTTGAATCTTTTTTTTGCTATATATTGTGTCTCTG
DNA 2: CAGAGACACAATATATAGCAAAAAAAAGATTCAACCACACAATATATAGCAAGAGAC
B8: Eco nrdHIEF box 2 duplicated (dsDNA)
DNA 1: GTCTCCAACTACATCTAGTATGGTTGAATCTTTTTTCAACTACATCTAGTATCTCTG
DNA 2: CAGAGATACTAGATGTAGTTGAAAAAAGATTCAACCATACTAGATGTAGTTGGAGAC
B9: Synt 19 bp spacer (dsDNA)
DNA 1: GCCAAACACAACATCTAGTGGTTGGATAGCGTGAAGTAGCACACAACATCTAGTGGACCTC
DNA 2: GAGGTCCACTAGATGTTGTGTGCTACTTCACGCTATCCAACCACTAGATGTTGTGTTTGGC
B10: Synt 16 bp spacer (dsDNA)
DNA 1: GCCAAACACAACATCTAGTGGTTGGATAGCGTGAAGCACACAACATCTAGTGGACCTC
DNA 2: GAGGTCCACTAGATGTTGTGTGCTTCACGCTATCCAACCACTAGATGTTGTGTTTGGC
B11: Synt 27 bp spacer (dsDNA)
DNA 1: GCCAAACACAACATCTAGTGGTTGGATAGCGTGAAGTTACCACCTAGCACACAACATCTAGTGGACCTC
DNA 2: GAGGTCCACTAGATGTTGTGTGCTAGGTGGTAACTTCACGCTATCCAACCACTAGATGTTGTGTTTGGC
B12: Synt 20 bp spacer (dsDNA)
DNA 1: GCCAAACACAACATCTAGTGGTTGGATAGCGTGACAGTAGCACACAACATCTAGTGGACCTC
DNA 2: GAGGTCCACTAGATGTTGTGTGCTACTGTCACGCTATCCAACCACTAGATGTTGTGTTTGGC
B13: Synt 17 bp spacer (dsDNA)
DNA 1: GCCAAACACAACATCTAGTGGTTGGATAGCGTGAAGGCACACAACATCTAGTGGACCTC
DNA 2: GAGGTCCACTAGATGTTGTGTGCCTTCACGCTATCCAACCACTAGATGTTGTGTTTGGC
B14: Synt 14 bp spacer (dsDNA)
DNA 1: GCCAAACACAACATCTAGTGGTTGGATAGCTGAGCACACAACATCTAGTGGACCTC
DNA 2: GAGGTCCACTAGATGTTGTGTGCTCAGCTATCCAACCACTAGATGTTGTGTTTGGC
B15: Synt 15 bp spacer (dsDNA)
DNA 1: GCCAAACACAACATCTAGTGGTTGGATAGCGTGAGCACACAACATCTAGTGGACCTC
DNA 2: GAGGTCCACTAGATGTTGTGTGCTCACGCTATCCAACCACTAGATGTTGTGTTTGGC
B16: Sth nrdDG (16 bp spacer) (dsDNA)
DNA 1: TCGAAAATCAATATATAGTGGTTGAGATAAAAATATACCACAATATATTGATTTTCCT
DNA 2: AGGAAAATCAATATATTGTGGTATATTTTTATCTCAACCACTATATATTGATTTTCGA
B17: Sth nrdHEF (16 bp spacer) (dsDNA)
DNA 1: TCAAAACACAAGATATAGGGTTGTGTTTCAATACTAAACACAAAATATTGTATTCCTT
DNA 2: AAGGAATACAATATTTTGTGTTTAGTATTGAAACACAACCCTATATCTTGTGTTTTGA

These binders were tested against T1, EcoNrdR (assay: MST; dATP + ATP; MST, temperature not stated. Lmo: 25 mM Bis-Tris propane pH 6.5, 100 mM KCl, 5 mM MgCl2, 5% glycerol, 1 mM DTT, 0.05% Tween 20, one nucleotide 1 mM or two at 0.5 mM each; Spn: 25 mM HEPES pH 7.2, 250 mM NaCl, 2.5 mM MgCl2, 15% glycerol, 2 mM DTT, 0.1 mg/mL BSA, 0.05% Tween 20, 0.5 mM ATP and/or dATP; Eco: 25 mM Tris pH 8.5, 100 mM NaCl, 7 mM MgCl2, 1 mM DTT, 0.025% Tween 20, 1 mM ATP + 1 mM dATP; …). Details: protein: recombinant; chain copies: 4; label: 5'-Cy5 sense; blunt.
In the case of B1, the Kd is reported as 1380 ± 309 nM. B2 gave a Kd of 117 ± 24 nM. Work on B3 yielded a Kd of 66 ± 12 nM. For B4, the Kd was 141 ± 34 nM. B5 gave a Kd of 326 ± 44 nM. For B6, the Kd was 24 ± 7 nM. B7 showed a Kd of 213 ± 40 nM. For B8, the Kd was 99 ± 33 nM. Binder B9 has a Kd of 601 ± 113 nM. B10 gave a Kd of 82 ± 22 nM. Work on B11 yielded a Kd of 27 ± 8 nM. With B12 the Kd was 3320 ± 540 nM. Work on B13 yielded a Kd of 45 ± 6 nM. With B14 the Kd was 169 ± 27 nM.

These binders were tested against T2, LmoNrdR in the same assay as above. Details: protein: recombinant; tags: C-terminal His6; chain copies: 4; label: 5'-Cy5 sense; blunt.
B1 gave a Kd of 37 ± 6 nM. Work on B2 yielded a Kd of 11 ± 1.8 nM. B3 gave a Kd of 3 ± 0.6 nM. Work on B4 yielded a Kd of 26 ± 3 nM. With B5 the Kd was 25 ± 12 nM. Binder B15 has a Kd of 1 ± 0.2 nM. With B9 the Kd was 51 ± 7 nM. B10 showed a Kd of 1 ± 0.4 nM. B11 gave a Kd of 18 ± 6 nM. Work on B12 yielded a Kd of 122 ± 10 nM. B13 showed a Kd of 1 ± 0.4 nM. B14 showed a Kd of 2 ± 0.5 nM.

These binders were tested against T3, SpnNrdR in the same assay as above. Details: protein: recombinant; tags: C-terminal His6; chain copies: 4; label: 5'-Cy5 sense; blunt.
B1 was tested, and the Kd was 5060 ± 511 nM. In the case of B2, the Kd is reported as 3940 ± 290 nM. With B16 the Kd was 1150 ± 320 nM. Binder B3 has a Kd of 6600 ± 536 nM. In the case of B4, the Kd is reported as 9200 ± 374 nM. Binder B5 has a Kd of 4370 ± 343 nM. Binder B17 has a Kd of 800 ± 250 nM. Binder B6 has a Kd of 2910 ± 225 nM. In the case of B15, the Kd is reported as 55 ± 14 nM. Work on B9 yielded a Kd of 11600 ± 340 nM. In the case of B10, the Kd is reported as 41 ± 11 nM. With B11 the Kd was 3190 ± 238 nM. In the case of B12, the Kd is reported as 12300 ± 388 nM. With B13 the Kd was 340 ± 83 nM. B14 showed a Kd of 699 ± 109 nM.

The binders below were run against T4, ScoNrdR in the same assay as above. Details: protein: recombinant; chain copies: 4; label: 5'-Cy5 sense; blunt.
For B1, the Kd was 580 ± 79 nM. In the case of B2, the Kd is reported as 158 ± 19 nM. Binder B3 has a Kd of 476 ± 80 nM. For B4, the Kd was 763 ± 104 nM. For B5, the Kd was 4050 ± 272 nM. In the case of B6, the Kd is reported as 4400 ± 355 nM. In the case of B15, the Kd is reported as 45 ± 13 nM. B9 showed a Kd of 1660 ± 221 nM. With B10 the Kd was 28 ± 7 nM. B11 was tested, and the Kd was 3500 ± 626 nM. B12 gave a Kd of 2190 ± 449 nM. B13 was tested, and the Kd was 21 ± 7 nM. B14 gave a Kd of 154 ± 28 nM.
